What all share (experiment): cell_activity
For data set [1], the system named is FS-specific TALEN (synthetic). To be noted: yeast; 3 clones single, 1 double integration; half-sites not stated; scale: clone of 48 with all three ADS cassettes integrated.
For data set [2], the system named is SFC1-specific ZFN (synthetic). As to conditions: yeast, pCUT015 alone; 76% with dual nuclease plasmid pCUT032.
The subject of data set [3] is ZFN.gfp (CompoZr zinc finger nuclease heterodimer ZFN.gfp.1/ZFN.gfp.2) (synthetic). As to conditions: yeast, three integrated target copies; 0 of 96 with empty vector; monomer to half-site assignment not stated; scale: of 96 colonies with all three loci replaced.
Data set [4] has as its system YJR030c-specific ZFN (synthetic). To be noted: yeast, pCUT016 alone; 63% with dual nuclease plasmid pCUT032.

Regarding “TAGTGGAGGAATTAAAAGAGGAAGTTAAGAAGGAATTGATAACTATCAA (double strand) [FS TALEN target site]”, the activity in data set [1] is 1. As to SFC1 ORF target, the activity (% GFP-positive) in data set [2] was found to be 50.

With “ACAACTACAACAGCCACAACGTCTATATCATGGCCGACAAGCA (double strand) [ZFN.gfp target in emgfp-delta]”, in data set [3], the activity amounted to 23. In data set [4], YJR030c ORF target registered an activity (% ADE2-positive) of 5.

(Values after patent US20120277120.)
